# According to patent US8986655:
# Target: prostate-specific membrane antigen (PSMA), dimeric isoform (UniProt Q04609)
# Experiment: phage-displayed ELISA on 1 µg/mL PSMA dimer, HRP activity
# Sequence of prostate-specific membrane antigen (PSMA), dimeric isoform (Q04609 44-750): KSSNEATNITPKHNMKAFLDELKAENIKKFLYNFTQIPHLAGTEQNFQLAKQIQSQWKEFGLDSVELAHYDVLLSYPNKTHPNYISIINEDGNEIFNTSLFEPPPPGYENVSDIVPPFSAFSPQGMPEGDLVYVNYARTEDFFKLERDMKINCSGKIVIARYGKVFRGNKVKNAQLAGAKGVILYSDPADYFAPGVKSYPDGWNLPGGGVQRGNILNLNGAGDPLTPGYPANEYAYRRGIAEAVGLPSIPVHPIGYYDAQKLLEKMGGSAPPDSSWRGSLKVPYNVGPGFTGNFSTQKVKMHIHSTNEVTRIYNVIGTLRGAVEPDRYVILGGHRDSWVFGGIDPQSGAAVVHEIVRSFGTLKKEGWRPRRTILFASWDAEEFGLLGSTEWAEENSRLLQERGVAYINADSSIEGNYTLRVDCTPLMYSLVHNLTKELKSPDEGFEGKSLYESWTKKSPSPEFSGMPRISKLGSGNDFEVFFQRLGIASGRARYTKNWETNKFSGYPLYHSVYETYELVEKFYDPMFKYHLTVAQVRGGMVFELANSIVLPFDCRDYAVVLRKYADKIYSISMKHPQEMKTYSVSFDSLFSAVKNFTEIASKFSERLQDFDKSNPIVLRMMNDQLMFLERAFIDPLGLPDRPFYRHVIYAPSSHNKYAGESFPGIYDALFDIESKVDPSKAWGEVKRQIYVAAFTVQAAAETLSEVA
substance,measurement,value
"phage-displayed peptide 1, CALCEFLG [SEQ ID NO: 1]",EC50 (read off the curve),0.2 nM
